Results reported in patent US20210253716A1 (Regeneron, published 2021).

B1: mAb29257 (antibody, human IgG4 S228P, kappa, V domains shown)
VH: EVQLVESGGNLVQPGGSLRLSCAASGFTFSNYAMSWVRQAPGKGLEWVSGITGNGIKTYYSVSAKGRFTISRDNSKNTLFLQMNSLRAEDTAIYYCVKERGHSWFGDWFDPWGQGTLVTVSS
VL: DIVMTQTPLSSPVTLGQPASISCRSSQGLVNSDGNTYLSWLHQRPGQPPRLLIYEISNRFSGVPDRFSGSGAGTDFTLKISRVEAEDVGFYYCMQSTQFPLTFGGGTKVEIKR
B2: mAb27405 (antibody, human IgG4 S228P, kappa, V domains shown)
VH: QVQLVESGGGLVKPGGSLRLSCAASGFTFSDYYMSWIRQAPGKGLEWVSYISRTGSTKYYADSVKGRFTISRDNAKNSLNLQMSSLRAEDTAVYFCAREPLQHWGQGTLVTVSS
VL: KIVLTQTPLSSPVTLGQPASISCRSSQSLVHSDGDTYLSWLHQRPGQPPRLLIYTISNRLSGVPDRFSGSGAGTDFTLKISRVEAEDVGVYYCMQGTQFPALTFGGGTKVEIKR
B3: mAb27404 (antibody, human IgG4 S228P, kappa, V domains shown)
VH: QVQLVESGGGLVKPGGSLRLSCAASGFTFSDYYMSWIRQAPGKGLEWISFISRTGSTKYYADSVKGRFTISRDNAKNSLNLQMSSLRAEDTAVYFCAREPLQHWGQGTLVTVSS
VL: NVVLTQTPISSPVILGQPASISCRSSQSLVHSDGDTYLSWLHQRPGQPPRLLIYTVSNRVSGVPDRFSGSGAGTDFTLKISRVEAEDVGVYYCMQGTQFPALTFGGGTKVEIKR
B4: mAb27245 (antibody, human IgG4 S228P, kappa, V domains shown)
VH: QVQLQQWGAGLLKPSETLSLTCAVYNGSFSSYYWNWIRQPPGKGLEWLGEINHRGSTNYNPSLTSRVTISVDTSKNQFSLKLTSVTAADTAIYYCTAHTRGFLYWGQGTLVTVSS
VL: DIQMTQSPSSLSASVGDRVTITCQASQDINNYLNWYQQKPGKAPKLLIYDASNLVPGVPSRFSGTGSGTDFSFTISSLQPEDIATYYCQHYYDLPLTFGGGTTVAIRR
B5: mAb27241 (antibody, human IgG4 S228P, kappa, V domains shown)
VH: QVQLQQWGAGLLKPSETLSLTCAVYNGSFSSYYWNWIRQPPGKGLEWLGEINHRGSTNYNPSLTSRVTISVDTSKNQFSLKLTSVTAADTAIYYCTAHTRGFLYWGQGTLVTVSS
VL: DIQMTQSPSSLSASVGDRVTITCQASQDINIYLNWYQQQPGKAPKLLIYDVSNLVPGVPSRFSGTGSGTHFSFTISSLQPEDIATYYCQHYDDLPLTFGGGTTVAIRR

Legend:
[1] = target: T1, full length human ACVR1 (R206H) on HEK293/BRE-luc/hACVR1-R206H-clone H2 cells (human, UniProt Q04771 21-509); experiment: cell-based or functional assay
T1 sequence: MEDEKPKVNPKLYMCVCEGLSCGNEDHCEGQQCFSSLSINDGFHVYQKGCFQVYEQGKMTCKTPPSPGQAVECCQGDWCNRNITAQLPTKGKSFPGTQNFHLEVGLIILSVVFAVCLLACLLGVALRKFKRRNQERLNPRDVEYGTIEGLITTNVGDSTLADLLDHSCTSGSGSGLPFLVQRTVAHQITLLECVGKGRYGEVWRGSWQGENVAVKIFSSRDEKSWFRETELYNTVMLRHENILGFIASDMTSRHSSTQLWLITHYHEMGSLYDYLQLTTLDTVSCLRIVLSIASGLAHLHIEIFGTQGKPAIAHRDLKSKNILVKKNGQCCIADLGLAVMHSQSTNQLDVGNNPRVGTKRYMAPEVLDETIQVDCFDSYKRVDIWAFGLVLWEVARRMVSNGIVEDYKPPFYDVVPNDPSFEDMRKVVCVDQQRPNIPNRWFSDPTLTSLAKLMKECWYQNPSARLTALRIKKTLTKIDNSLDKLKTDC

[2] = target: T2, human ACVR1 extracellular domain expressed with a C-terminal myc-myc-hexahistidine tag (human); experiment: SPR (Biacore), mAb captured, 25 C
T2 construct: also called hACVR1-MMH
T2 chain: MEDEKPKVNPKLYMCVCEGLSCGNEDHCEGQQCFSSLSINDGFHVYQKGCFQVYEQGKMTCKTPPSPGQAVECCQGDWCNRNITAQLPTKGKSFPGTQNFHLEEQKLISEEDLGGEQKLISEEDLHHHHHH
Procedure: (§1) Equilibrium dissociation constants (KD) for ACVR1 binding to purified anti-ACVR1 monoclonal antibodies were determined using a real-time surface plasmon resonance biosensor (SPR-Biacore), Biacore 4000. All binding studies were performed in 10 mM HEPES, 150 mM NaCl, 3 mM EDTA, and 0.05% v/v surfactant Tween-20, pH 7.4 (HBS-ET) running buffer at 25° C. and 37° C. The Biacore CM5 sensor surface was first derivatized by amine coupling with a monoclonal mouse anti-human Fc antibody (GE, #BR-1008-39 or REGN2567) to capture anti-ACVR1 monoclonal antibodies. […] ACVR1 reagents were then injected over anti-human Fc captured anti-ACVR1 monoclonal antibody surface for 2.5-3 minutes at a flow rate of 30 μL/minute, while the dissociation of monoclonal antibody bound ACVR1 reagent was monitored for 10-15 minutes in HBS-ET running buffer. Kinetic association rate constant (kₐ) and dissociation rate constant (kd) were determined by fitting the real-time sensorgrams to a 1:1 binding model using Scrubber 2.0c curve-fitting software. Binding dissociation equilibrium constants (KD) and dissociative half-lives (t½) were calculated from the kinetic rate constants as: […]

[3] = target: T3, human ACVR1 extracellular domain expressed with a C-terminal mouse IgG2a Fc tag (human); experiment: SPR (Biacore), mAb captured, 25 C
T3 construct: also called hACVR1-mFc
T3 chain: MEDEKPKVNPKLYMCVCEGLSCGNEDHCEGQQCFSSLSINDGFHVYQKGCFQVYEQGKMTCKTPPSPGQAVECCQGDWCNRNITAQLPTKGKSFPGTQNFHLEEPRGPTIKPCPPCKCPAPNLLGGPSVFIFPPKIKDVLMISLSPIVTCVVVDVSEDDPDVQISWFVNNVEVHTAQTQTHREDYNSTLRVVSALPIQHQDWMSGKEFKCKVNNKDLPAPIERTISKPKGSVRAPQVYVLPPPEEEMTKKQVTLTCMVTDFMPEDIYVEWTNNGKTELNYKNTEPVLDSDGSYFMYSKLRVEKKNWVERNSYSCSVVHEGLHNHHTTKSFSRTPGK
Procedure: as §1

[4] = target: T4, mouse ACVR1 extracellular domain expressed with a C-terminal myc-myc-hexahistidine tag (mouse); experiment: SPR (Biacore), mAb captured, 25 C
T4 construct: also called mACVR1-MMH; mACVR1-mmh
T4 chain: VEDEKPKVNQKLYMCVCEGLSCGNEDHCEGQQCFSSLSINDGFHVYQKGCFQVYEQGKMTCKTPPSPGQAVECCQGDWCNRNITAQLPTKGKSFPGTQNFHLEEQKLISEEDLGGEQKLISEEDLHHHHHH
Procedure: as §1

[5] = target: T2, human ACVR1 extracellular domain …; experiment: SPR (Biacore), mAb captured, 37 C
Procedure: as §1

[6] = target: T3, human ACVR1 extracellular domain …; experiment: SPR (Biacore), mAb captured, 37 C
Procedure: as §1

[7] = target: T4, mouse ACVR1 extracellular domain …; experiment: SPR (Biacore), mAb captured, 37 C
Procedure: as §1

[8] = target: T1, full length human ACVR1 (R206H) on …; experiment: flow cytometry, 70 nM antibody, HEK293/hACVR1-R206H cells
Procedure: Cells were fixed using BD CytoFix™ (Becton Dickinson, #554655) and analyzed on either Hypercyt® or IQue® Flow Cytometers (Intellicyt®). Unstained and secondary antibody alone controls were also tested for all cell lines. The results were analyzed using ForeCyt® (IntelliCyt®) software to determine the geometric means of fluorescence for viable cells and binding ratios were calculated by normalizing the geometric mean value of the test condition by the geometric mean value of the corresponding unstained cells.

Binder	% Inhibition, BRE-luc reporter, 2 nM hBMP7 [1]	IC50 [M], BRE-luc reporter, 2 nM hBMP7 [1]	900 nM or 100 nM Ag Bound (RU) [2]	Kd [2]	koff [2]	kon [2]	t½ [2]	100 nM Ag Bound (RU) [3]	Kd [3]	koff [3]	kon [3]	t½ [3]	900 nM or 100 nM Ag Bound (RU) [4]	900 nM or 100 nM Ag Bound (RU) [5]	Kd [5]	koff [5]	kon [5]	t½ [5]	100 nM Ag Bound (RU) [6]	Kd [6]	further results
B1	62%	1.4e-10 M	47 RU	8.43 nM	0.000521 s⁻¹	61800 M⁻¹ s⁻¹	22 min	157 RU	0.936 nM	0.000121 s⁻¹	129000 M⁻¹ s⁻¹	95 min	-2 RU	64 RU	21.4 nM	0.00326 s⁻¹	153000 M⁻¹ s⁻¹	3.5 min	201 RU	1.58 nM	koff [6]: 0.000495 s⁻¹; kon [6]: 314000 M⁻¹ s⁻¹; t½ [6]: 23 min; 900 nM or 100 nM Ag Bound (RU) [7]: 2 RU; MFI - Normalized to Unstained Control [8]: 1660 fold
B2	107%	7.6e-10 M	37 RU	21 nM	0.00147 s⁻¹	69900 M⁻¹ s⁻¹	8 min	142 RU	1.9 nM	0.000201 s⁻¹	106000 M⁻¹ s⁻¹	57 min	0 RU	52 RU	44.4 nM	0.00528 s⁻¹	119000 M⁻¹ s⁻¹	2.2 min	185 RU	3.18 nM	binding result [4]: no binding (tested: 900 nM or 100 nM); koff [6]: 0.000742 s⁻¹; kon [6]: 233000 M⁻¹ s⁻¹; t½ [6]: 16 min; 900 nM or 100 nM Ag Bound (RU) [7]: 2 RU; MFI - Normalized to Unstained Control [8]: 1560 fold
B3	109%	8.8e-10 M	46 RU	4.49 nM	0.000446 s⁻¹	99200 M⁻¹ s⁻¹	26 min	160 RU	0.444 nM	8.76e-05 s⁻¹	198000 M⁻¹ s⁻¹	132 min	1 RU	67 RU	7.63 nM	0.00183 s⁻¹	240000 M⁻¹ s⁻¹	6 min	216 RU	1.11 nM	binding result [4]: no binding (tested: 900 nM or 100 nM); koff [6]: 0.000338 s⁻¹; kon [6]: 303000 M⁻¹ s⁻¹; t½ [6]: 34 min; 900 nM or 100 nM Ag Bound (RU) [7]: 4 RU; MFI - Normalized to Unstained Control [8]: 1870 fold
B4	110%	1.5e-09 M	35 RU	8.01 nM	0.000207 s⁻¹	25800 M⁻¹ s⁻¹	56 min	145 RU	1.34 nM	5.06e-05 s⁻¹	38100 M⁻¹ s⁻¹	228 min	1 RU	66 RU	32.2 nM	0.00173 s⁻¹	53900 M⁻¹ s⁻¹	7 min	222 RU	3.65 nM	binding result [4]: no binding (tested: 900 nM or 100 nM); koff [6]: 0.000335 s⁻¹; kon [6]: 91700 M⁻¹ s⁻¹; t½ [6]: 34 min; 900 nM or 100 nM Ag Bound (RU) [7]: 2 RU; MFI - Normalized to Unstained Control [8]: 1660 fold
B5	110%	1.8e-09 M	34 RU	6.52 nM	0.000123 s⁻¹	18900 M⁻¹ s⁻¹	94 min	135 RU	0.918 nM	3.2e-05 s⁻¹	34900 M⁻¹ s⁻¹	361 min	1 RU	66 RU	19.7 nM	0.000852 s⁻¹	43200 M⁻¹ s⁻¹	14 min	216 RU	2.44 nM	binding result [4]: no binding (tested: 900 nM or 100 nM); koff [6]: 0.000201 s⁻¹; kon [6]: 82200 M⁻¹ s⁻¹; t½ [6]: 57 min; 900 nM or 100 nM Ag Bound (RU) [7]: 2 RU; MFI - Normalized to Unstained Control [8]: 1160 fold
